Experimental data published in article PMC4143144.

Biological target: amino-terminal hexahistidine-tagged EttA-EQ2 (E. coli) (UniProt P0A9W3)
Experiment: pull-down

- stoichiometry N (EttA-EQ2:70S ribosome): 1
Substance: E. coli 70S ribosome (from UniProt P0A7L0 1-234; P62399 1-179; P0A7N9 1-55; P02359 1-179; P0A7R1 1-149) (complex)
